Substitutions are numbered along the chain they refer to.
B1: EW 4C (antibody, V domains shown)
VH: EVQLVESGPGLVKPSETLSLTCSVSADSFKKGYYWGWIRQPPGKGLESIVNSFDSGTTRYNPSLWGRATVSDMSKWHFSLKLTSVTAADTAVYYCVRGTYGSGLHWGQGILVTVSS
VL: QTVVTQEPSLTVSPGGTVTLTCGSSVGTVASGHYPYWVQQKPGQAPRTLIYDTDNKQSWTPARFSGSLLGGKAALTLSGAQPEDEADYYCFLSHNDAWVFGGGTKLTVL
B2: FD 11E (antibody, V domains shown)
VH: EVQLVESGGGLVKPGGSLRLSCAASGFTFSSYSMNWVRQAPGKGLEWVSSISSSSSYIYYADSVKGRFTISRDNAKNSLYLQMNSLRAEDTAVYYCASLAAAGPETYYYYGMDVWGQGTMVTVSS
VL: not shown
B3: FG 7A (antibody, V domains shown)
VH: EVQLVESGGGVVQPGRSLRLSCAASGFTFSSYAMHWVRQAPGKGLEWVAVISYDGSNKYYADSVKGRFTISRDNSKNTLYLQMNSLRAEDTAVYYCARSHSGSYRASLDYWGQGTTVTVSS
VL: not shown
B4: FJ 4E (antibody, V domains shown)
VH: QVQLVESGPGLVKPSETLSLTCSVSGGSISSGTYYWSWIRQQPGKGLEWIGYIYNTGRPYYNPFLKSRITISVDSSKNQFSLKLTSVTAADTAVYYCARDEYDSSDSGIQGHWFDPWGQGTLVTVSS
VL: AIRMTQSPSSLSASVGDRVTITCRTSQNINSFLNWYQQKPGKGPNLLIYGAFTLQSGVPSRFSGSGSGTDFTLTISSLQPEDFATYFCQQSYSTPWTFGQGTKVEIK
B5: FI 3A (antibody, V domains shown)
VH: EVQLLESGGGLIQPGGSLRLSCAASGFTVSSNYMSWVRQAPGKGLEWVSVIYSGGSTYYADSVKGRFTISRDNSKNTLYLQMNSLRAEDTAVYYCARDHVRPGMNIWGQGTMVTVSS
VL: not shown
notes: also called FI 03A
B6: FD 11A (antibody, V domains shown)
VH: EVQLVESGGGVVQPGRSLRLSCAASGFTFSSYGMHWVRQAPGKGLEWVAVIWYDGSNKYYADSVKGRFTISRDNSKNTLYLQMNSLRAEDTAVYYCAKGPDILTGYYNYYYYGMDVWGQGTMVTVSS
VL: QSVLTQPPSVSGAPGQRVTISCTGSSSNIGAGYDVHWYQQLPGTAPKLLIYGNSNRPSGVPDRFSGSKSGTSASLAITGLQAEDEADYYCQSYDSSLSGFYVVFGGGTKLTVL
B7: FD 7C (antibody, V domains shown)
VH: QLQLQESGPGLVKPSETLSLTCTVSGGSISSYYWSWIRQPPGKGLEWIGYIYYSGSTNYNPSLKSRVTISVDTSKNQFSLKLSSVTAADTAVYYCARDYRFGELFGRFAWFDPWGQGTLVTVSS
VL: not shown
B8: FB 1E (antibody, V domains shown)
VH: EVQLVESGAEVKKPGESLKISCQGSGYRFNSYWIAWVRQMPGKGLEWMGSIFPTDSDIRYNPSFQGQVTISADKSISIAYLQWSSLKASDTAIYYCARHWASMVRGVIRASHYYGMDVWGQGTTVTVSS
VL: QSVLTQPPSASGSPGQSVTISCSGASSDIGDYNYVSWYQQLPGKAPKLLIYEVTKRPSGVPDRFSGSKSGNTASLTVSGLQADDEADYYCSSYAFGGSDIRVFGGGTKLAVL
B9: EW 9C (antibody, V domains shown)
VH: EVQLVESGGGVVQPGASLRLSCVASGFTFNNFGFHWVRQAPGKGLEWLAVISYEGSKTYYAESLKGRFTISRDTSKNTVYLQMNSLRAEDTAVYYCARATSIFWFGEGRNWFDPWGQGTMVTVSS
VL: EIVLTQSPGTVSLSAGERATLSCRASQNVGTDLAWYVQRPGQAPRLLIYDTSNKATGIPARFSGRGSGTDFTLTIDSLEPEDFAVYYCQQRSNWPLTFGGGTKVEIR
B10: EW 9C-1 (antibody, V domains shown)
VH: B9 VH with T119A, M120L
VL: B9 VL with L4M, K54R, R107K
B11: FM 1A (antibody, V domains shown)
VH: EVQLLESGGGVVQPGRSLRLSCAASGFTFSSYGMHWVRQAPGKGLEWVAVIWYDGSNKYYADSVKGRFTISRDNSKNTLYLQMNSLRAEDTAVYYCAREGAVGATRGFDYWGQGTLVTVSS
VL: SYELTQPPSVSVAPGQTARITCGGNNIGSKSVHWYQQKPGQAPVLVVYDDSDRPSGIPERFSGSNSGNTATLTISRVEAGDEADYYCQVWDSSSDQGVFGGGTKLTVL
B12: EY 6A (antibody, V domains shown)
VH: EVQLVESGGGVVQPGRSLRLSCAASAFTFSSYDMHWVRQAPGKGLEWVAVISYDGSNKYYADSVKGRFTISRDNSKNTLYLQMNSLRAEDTAVYYCAKDGGKLWVYYFDYWGQGTTVTVSS
VL: not shown
B13: FD 10A (antibody, V domains shown)
VH: EVQLVESGGGLVQPGGSLRLSCAASGFTFSSYWMHWVRQAPGKGLVWVSRINSDGSSTSYADSVKGRFTISRDNAKNTLYLQMNSLRAEDTAVYYCANMAFDIWGQGTMVTVSS
VL: not shown
B14: FD 5D (antibody, V domains shown)
VH: EVQLVESGGGLVQPGGSLRLSCAASGFTFSSYSMNWVRQAPGKGLEWVSYISSSSSTIYYADPVKGRFTISRDNAKNSLYLQMNSLRAEDTAVYYCASPGGITAAGTSVLFGYYGMDVWGQGTMVTVSS
VL: not shown
B15: FN 2C (antibody, V domains shown)
VH: EVQLLESGGGVVQPGRSLRLSCAASGFNFNNYGMHWVRQAPGKGLEWVATISYEGSKKFYVDSVKGRFTISKDNSKNTLYLQMNSLRVDDTAFYYCAKRREIFWLGEPPLSDAFDFWGQGTMVTVSS
VL: QSVLTQPPSVSGAPGQRVTISCTGSGSNIGAGYDVHWYQFLPGTAPQLLIYGNNNRPSGVPDRFSGSKSGTSASLAITGLQAEDEADYYCQSYDSSLSGSVFGGGTKLTVL
B16: FB 9D (antibody, V domains shown)
VH: B8 VH with E1Q, I58V, I78F
VL: B8 VL with S2P, D31K, I100T, A110T

These binders were tested against T1, SARS-CoV-2 nucleocapsid protein (SARS-CoV-2, UniProt P0DTC9 1-419) (assay: ELISA on recombinant protein).
T1 construct: also called N protein

Binder | binding result
B1 | binds

Each binder was assayed against T2, spike glycoprotein of wild type SARS-CoV-2 virus (SARS-CoV-2, UniProt P0DTC2 14-1273) (assay: cell-based or functional assay).

Binder | Neutralization by PRNT EC50 | Neutralization by FMNT EC50
B2 | 70 nM | 
B3 | 133 nM | 
B4 | 75.3 nM | 
B5 | 8.67 nM | 0.51 nM
B6 | 0.05 nM | 3.68 nM
B7 |  | 35.6 nM
B8 | 36 nM | 
B9 | 133 nM | 
B10 | 133 nM | 
B11 | 133 nM | 
B12 | 133 nM | 22.5 nM
B13 | 111 nM | 
B14 | 133 nM | 

Target: T2, spike glycoprotein of wild type …
Assay: cell-based or functional assay
Remark: another data set of the same source

Binder | fold reduction of virus | Ct value of culture supernatant, after 5 days of incubation (virus control 13.0)
B5 | ~10100 fold | 
B6 | ~1024 fold | 23 Ct
B9 | ~832 fold | 22.7 Ct
B12 |  | 22.7 Ct
B14 | ~56 fold | 18.8 Ct

These binders were tested against T3, SARS-CoV-2 nucleocapsid in fixed and permeabilised SARS-CoV-2 infected cells (SARS-CoV-2, UniProt P0DTC9 1-419) (assay: immunofluorescence assay).
T3 construct: whole, on cells; also called N antigen

Binder | binding result
B1 | binds

What follows are binders tested against T4, SARS-CoV-2 spike S2 subunit (SARS-CoV-2, UniProt P0DTC2 686-1213) (assay: ELISA).
T4 construct: domain: S2 subunit

Binder | binding result
B2 | no binding
B5 | no binding
B6 | no binding
B7 | no binding
B12 | no binding
B14 | no binding

These binders were tested against T5, SARS-CoV-2 spike S1 subunit (SARS-CoV-2, UniProt P0DTC2 16-685) (assay: ELISA).
T5 construct: domain: S1 subunit

Binder | binding result
B15 | no binding
B3 | no binding
B4 | no binding
B16 | no binding
B8 | no binding
B9 | no binding
B10 | no binding
B11 | no binding
B13 | no binding

These binders were tested against T6, MERS spike extracellular domain (Middle East respiratory syndrome …, UniProt K9N5Q8 18-1296) (assay: ELISA).
T6 construct: extracellular domain

Binder | binding result
B2 | no binding
B15 | no binding
B3 | no binding
B4 | binds
B7 | no binding
B16 | binds
B8 | binds
B9 | binds
B10 | binds
B11 | no binding
B13 | binds
B14 | no binding

Each binder was assayed against T7, SARS-CoV-2 spike receptor binding domain (RBD) (SARS-CoV-2, UniProt P0DTC2 319-541) (assay: ELISA).
T7 construct: also called SARS-CoV-2 RBD

Binder | binding result
B2 | no binding
B15 | no binding
B3 | no binding
B4 | no binding
B7 | no binding
B16 | no binding
B8 | no binding
B9 | no binding
B10 | no binding
B11 | no binding
B13 | no binding

These binders were tested against T8, SARS spike S1 subunit (severe acute respiratory syndrome …, UniProt P59594 14-667) (assay: ELISA).
T8 construct: domain: S1 subunit

Binder | binding result
B2 | no binding
B15 | no binding
B3 | no binding
B4 | binds
B7 | no binding
B16 | no binding
B8 | no binding
B9 | no binding
B10 | no binding
B11 | no binding
B13 | binds
B14 | no binding

The binders below were run against T9, Human coronavirus OC43 spike extracellular domain (human coronavirus OC43, UniProt P36334 14-1297) (assay: ELISA).
T9 construct: extracellular domain

Binder | binding result
B2 | no binding
B3 | no binding
B7 | no binding
B9 | binds
B10 | binds
B11 | no binding
B13 | binds
B14 | no binding

Source: patent US20230279079A1 (CHANG GUNG MEMORIAL HOSPITAL LINKOU, published 2023)
